# Experimental data: patent US9109032
# Biological target: EphA3 antigen (UniProt P29320)
# Test: ELISA
# Sequence of UniProt P29320 (P29320 21-541 limits assumed): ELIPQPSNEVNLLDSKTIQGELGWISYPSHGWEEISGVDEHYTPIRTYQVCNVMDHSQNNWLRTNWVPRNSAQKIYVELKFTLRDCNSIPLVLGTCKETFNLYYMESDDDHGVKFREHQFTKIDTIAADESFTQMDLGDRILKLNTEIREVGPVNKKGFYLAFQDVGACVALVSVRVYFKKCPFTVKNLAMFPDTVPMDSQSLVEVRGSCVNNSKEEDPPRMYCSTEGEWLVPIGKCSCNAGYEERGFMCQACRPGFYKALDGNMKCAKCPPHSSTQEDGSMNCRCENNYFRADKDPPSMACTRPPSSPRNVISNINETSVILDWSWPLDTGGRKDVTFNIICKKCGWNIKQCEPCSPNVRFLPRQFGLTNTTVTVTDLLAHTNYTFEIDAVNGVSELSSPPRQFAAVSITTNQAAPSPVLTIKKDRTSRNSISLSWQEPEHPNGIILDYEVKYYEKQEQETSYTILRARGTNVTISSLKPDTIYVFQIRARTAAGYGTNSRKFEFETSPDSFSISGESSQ
substance,measurement,value
monoclonal antibody IIIA4,AFFINITY,2.5 nM
